Assay results: article PMC3413153

Key:
[1] = target: T1, KSRP KH3 (human, UniProt Q92945); assay: NMR
T1 sequence: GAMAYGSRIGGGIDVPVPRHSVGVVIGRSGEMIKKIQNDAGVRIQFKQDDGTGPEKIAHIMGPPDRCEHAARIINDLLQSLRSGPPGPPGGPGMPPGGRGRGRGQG

[2] = target: T2, KSRP KH4 (human, UniProt Q92945); assay: NMR
T2 sequence: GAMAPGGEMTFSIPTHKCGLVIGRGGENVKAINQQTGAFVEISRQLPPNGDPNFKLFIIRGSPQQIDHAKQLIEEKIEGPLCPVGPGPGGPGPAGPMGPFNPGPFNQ

[3] = target: ZBP1 KH34 (Y396F) (UniProt Q9NZI8, Y396F); assay: NMR
[4] = target: T3, KSRP KH1 (human, UniProt Q92945); assay: NMR
T3 sequence: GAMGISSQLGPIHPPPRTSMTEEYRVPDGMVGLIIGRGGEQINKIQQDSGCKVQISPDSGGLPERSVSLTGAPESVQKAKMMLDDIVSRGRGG

[5] = target: T4, KSRP KH2 (human, UniProt Q92945); assay: NMR
T4 sequence: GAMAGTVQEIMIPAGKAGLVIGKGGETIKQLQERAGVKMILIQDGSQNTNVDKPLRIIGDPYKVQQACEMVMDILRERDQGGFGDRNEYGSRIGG

[6] = target: T5, KSRP KH1-4, KH3 mutant (human, UniProt Q92945 68-525, R340D;S341D); assay: BLI
T5 sequence: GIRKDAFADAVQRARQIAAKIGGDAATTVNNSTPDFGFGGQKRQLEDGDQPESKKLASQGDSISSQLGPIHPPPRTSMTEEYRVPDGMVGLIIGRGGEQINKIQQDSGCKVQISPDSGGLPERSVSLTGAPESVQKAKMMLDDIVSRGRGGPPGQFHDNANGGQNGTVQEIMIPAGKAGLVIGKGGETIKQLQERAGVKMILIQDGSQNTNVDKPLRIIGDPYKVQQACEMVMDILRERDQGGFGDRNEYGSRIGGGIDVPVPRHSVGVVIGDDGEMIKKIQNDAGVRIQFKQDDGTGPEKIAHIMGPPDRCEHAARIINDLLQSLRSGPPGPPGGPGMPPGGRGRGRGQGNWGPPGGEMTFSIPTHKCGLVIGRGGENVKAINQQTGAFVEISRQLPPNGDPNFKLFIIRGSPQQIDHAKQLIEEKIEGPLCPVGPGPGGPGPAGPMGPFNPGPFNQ

[7] = target: T6, KSRP KH1-4 WT (human, UniProt Q92945); assay: BLI
T6 sequence: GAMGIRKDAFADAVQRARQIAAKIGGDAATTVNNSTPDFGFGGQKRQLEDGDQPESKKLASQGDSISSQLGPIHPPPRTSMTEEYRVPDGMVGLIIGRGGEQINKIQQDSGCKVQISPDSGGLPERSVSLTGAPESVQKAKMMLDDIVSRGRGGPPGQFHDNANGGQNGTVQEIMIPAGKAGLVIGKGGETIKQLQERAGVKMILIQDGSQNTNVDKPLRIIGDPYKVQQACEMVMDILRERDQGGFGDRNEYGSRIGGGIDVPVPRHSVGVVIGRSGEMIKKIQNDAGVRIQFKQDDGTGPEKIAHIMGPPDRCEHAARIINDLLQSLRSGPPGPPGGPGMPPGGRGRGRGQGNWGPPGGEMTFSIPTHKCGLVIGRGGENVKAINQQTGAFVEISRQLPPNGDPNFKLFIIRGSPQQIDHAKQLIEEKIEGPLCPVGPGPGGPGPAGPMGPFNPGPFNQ

[8] = target: T7, KSRP KH1-4, KH1 mutant (human, UniProt Q92945 68-525, R162D;G163D); assay: BLI
T7 sequence: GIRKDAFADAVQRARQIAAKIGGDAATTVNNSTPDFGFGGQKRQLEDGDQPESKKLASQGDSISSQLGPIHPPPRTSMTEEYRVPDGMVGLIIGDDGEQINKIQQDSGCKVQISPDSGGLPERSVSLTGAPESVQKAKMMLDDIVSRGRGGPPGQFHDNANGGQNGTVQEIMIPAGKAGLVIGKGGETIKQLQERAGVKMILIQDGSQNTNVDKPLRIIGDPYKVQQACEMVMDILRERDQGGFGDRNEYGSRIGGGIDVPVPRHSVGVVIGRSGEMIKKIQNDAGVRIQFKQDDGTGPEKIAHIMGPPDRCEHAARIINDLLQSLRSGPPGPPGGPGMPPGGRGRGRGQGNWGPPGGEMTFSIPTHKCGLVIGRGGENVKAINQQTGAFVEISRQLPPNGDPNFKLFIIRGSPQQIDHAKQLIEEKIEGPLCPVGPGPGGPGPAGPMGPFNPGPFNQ

[9] = target: T8, KSRP KH1-4, KH4 mutant (human, UniProt Q92945 68-525, R442D;G443D); assay: BLI
T8 sequence: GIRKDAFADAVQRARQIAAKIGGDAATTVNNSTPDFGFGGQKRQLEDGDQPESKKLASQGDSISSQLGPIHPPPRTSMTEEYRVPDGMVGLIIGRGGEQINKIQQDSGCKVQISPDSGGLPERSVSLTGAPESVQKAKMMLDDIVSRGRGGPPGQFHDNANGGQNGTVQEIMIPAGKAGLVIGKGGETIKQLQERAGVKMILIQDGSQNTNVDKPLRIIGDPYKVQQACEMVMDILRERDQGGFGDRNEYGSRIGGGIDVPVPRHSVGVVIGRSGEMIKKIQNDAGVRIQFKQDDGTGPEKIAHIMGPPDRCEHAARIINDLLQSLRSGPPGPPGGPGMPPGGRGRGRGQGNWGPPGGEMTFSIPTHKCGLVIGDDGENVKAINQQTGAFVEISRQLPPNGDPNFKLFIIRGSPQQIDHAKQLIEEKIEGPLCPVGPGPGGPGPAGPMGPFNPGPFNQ

[10] = target: T9, KSRP KH1-4, KH2 mutant (human, UniProt Q92945 68-525, K251D;G252D); assay: BLI
T9 sequence: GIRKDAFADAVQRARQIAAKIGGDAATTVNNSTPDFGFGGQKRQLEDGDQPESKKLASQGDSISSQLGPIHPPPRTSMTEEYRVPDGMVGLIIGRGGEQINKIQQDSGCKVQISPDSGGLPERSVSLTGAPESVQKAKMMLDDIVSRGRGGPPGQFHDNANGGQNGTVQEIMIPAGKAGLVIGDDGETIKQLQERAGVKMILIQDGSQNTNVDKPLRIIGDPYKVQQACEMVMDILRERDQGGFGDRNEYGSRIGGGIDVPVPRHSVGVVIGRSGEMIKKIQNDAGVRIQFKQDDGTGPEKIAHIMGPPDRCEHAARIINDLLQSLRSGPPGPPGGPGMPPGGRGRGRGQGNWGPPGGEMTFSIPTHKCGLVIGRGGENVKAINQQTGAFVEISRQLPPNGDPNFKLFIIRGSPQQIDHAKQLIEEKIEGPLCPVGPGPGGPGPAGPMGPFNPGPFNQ

UGGGU (ssRNA)
binding result [1]: binds

UAGGG (ssRNA)
binding result [2]: binds

GCACACCC (ssRNA)
binding result [3]: binds

UUGGG (ssRNA)
binding result [4]: binds

UUUAG (ssRNA)
binding result [5]: binds

GUGUGUUAUUAUUUAUUAUUUAUUUAUUAUUUAUUUAUUCAG (ssRNA) [TNFalpha BLI ARE 42-mer]
Kd [6]: 95 ± 19 nM | Kd [7]: 3.6 ± 1.4 nM | Kd [8]: 7.3 ± 1.7 nM | Kd [9]: 50 ± 16 nM | Kd [10]: 43 ± 14 nM
